To fix the notation:
B1: human fibrinogen (complex)
chain 1: ADSGEGDFLAEGGGVRGPRVVERHQSACKDSDWPFCSDEDWNYKCPSGCRMKGLIDEVNQDFTNRINKLKNSLFEYQKNNKDSHSLTTNIMEILRGDFSSANNRDNTYNRVSEDLRSRIEVLKRKVIEKVQHIQLLQKNVRAQLVDMKRLEVDIDIKIRSCRGSCSRALAREVDLKDYEDQQKQLEQVIAKDLLPSRDRQHLPLIKMKPVPDLVPGNFKSQLQKVPPEWKALTDMPQMRMELERPGGNEITRGGSTSYGTGSETESPRNPSSAGSWNSGSSGPGSTGNRNPGSSGTGGTATWKPGSSGPGSTGSWNSGSSGTGSTGNQNPGSPRPGSTGTWNPGSSERGSAGHWTSESSVSGSTGQWHSESGSFRPDSPGSGNARPNNPDWGTFEEVSGNVSPGTRREYHTEKLVTSKGDKELRTGKEKVTSGSTTTTRRSCSKTVTKTVIGPDGHKEVTKEVVTSEDGSDCPEAMDLGTLSGIGTLDGFRHRHPDEAAFFDTASTGKTFPGFFSPMLGEFVSETESRGSESGIFTNTKESSSHHPGIAEFPSRGKSSSYSKQFTSSTSYNRGDSTFESKSYKMADEAGSEADHEGTHSTKRGHAKSRPV
chain 2: QGVNDNEEGFFSARGHRPLDKKREEAPSLRPAPPPISGGGYRARPAKAAATQKKVERKAPDAGGCLHADPDLGVLCPTGCQLQEALLQQERPIRNSVDELNNNVEAVSQTSSSSFQYMYLLKDLWQKRQKQVKDNENVVNEYSSELEKHQLYIDETVNSNIPTNLRVLRSILENLRSKIQKLESDVSAQMEYCRTPCTVSCNIPVVSGKECEEIIRKGGETSEMYLIQPDSSVKPYRVYCDMNTENGGWTVIQNRQDGSVDFGRKWDPYKQGFGNVATNTDGKNYCGLPGEYWLGNDKISQLTRMGPTELLIEMEDWKGDKVKAHYGGFTVQNEANKYQISVNKYRGTAGNALMDGASQLMGENRTMTIHNGMFFSTYDRDNDGWLTSDPRKQCSKEDGGGWWYNRCHAANPNGRYYWGGQYTWDMAKHGTDDGVVWMNWKGSWYSMRKMSMKIRPFFPQQ
chain 3: YVATRDNCCILDERFGSYCPTTCGIADFLSTYQTKVDKDLQSLEDILHQVENKTSEVKQLIKAIQLTYNPDESSKPNMIDAATLKSRKMLEEIMKYEASILTHDSSIRYLQEIYNSNNQKIVNLKEKVAQLEAQCQEPCKDTVQIHDITGKDCQDIANKGAKQSGLYFIKPLKANQQFLVYCEIDGSGNGWTVFQKRLDGSVDFKKNWIQYKEGFGHLSPTGTTEFWLGNEKIHLISTQSAIPYALRVELEDWNGRTSTADYAMFKVGPEADKYRLTYAYFAGGDAGDAFDGFDFGDDPSDKFFTSHNGMQFSTWDNDNDKFEGNCAEQDGSGWWMNKCHAGHLNGVYYQGGTYSKASTPNGYDNGIIWATWKTRWYSMKKTTMKIIPFNRLTIGEGQQHHLGGAKQAGDV
modifications: Plasma-derived intact fibrinogen (Enzyme Research Laboratories), fibrinopeptides A and B retained; disulfide-linked (AαBβγ)2 hexamer, N-glycosylated, Ca2+-bound. By convention, the major circulating …
B2: murine wild-type platelet-derived growth factor-BB (PDGF-BB) (ligand, mouse, UniProt P31240 82-190, looked up)
chain: SLGSLAAAEPAVIAECKTRTEVFQISRNLIDRTNANFLVWPPCVEVQRCSGCCNNRNVQCRASQVQMRPVQVRKIEIVRKKPIFKKATVTLEDHLACKCETIVTPRPVT
notes: platelet-derived growth factor subunit B, mouse; PDGF-BB occurs as a dimer; source: bought: Peprotech
B3: murine wild-type IL-1 receptor antagonist (IL-1Ra) (natural protein, mouse, UniProt P25085 27-178, looked up)
chain: RPSGKRPCKMQAFRIWDTNQKTFYLRNNQLIAGYLQGPNIKLEEKIDMVPIDLHSVFLGIHGGKLCLSCAKSGDDIKLQLEEVNITDLSKNKEEDKRFTFIRSEKGPTTSFESAACPGWFLCTTLEADRPVSLTNTPEEPLIVTKFYFQEDQ
notes: interleukin-1 receptor antagonist protein, mouse; also called interleukin-1 receptor antagonist

Holding throughout (assay): ELISA; ECM protein coated on the plate (100 nM in PBS, 1 h, 37 °C), blocked with 1% BSA in PBS-T; IL-1Ra or PDGF-BB variants at 0 to 100 nM in PBS-T with 0.1% BSA, 1 h, room temperature; bound protein detected with biotinylated antibodies (DuoSet); specific binding fitted with a one site-specific binding model; means of 3 independent experiments
Holding throughout (details): both partners purified
(In general: ELISA stands for enzyme-linked immunosorbent assay.)

One assay concerns the target T1, IL-1Ra/PlGF123-141.
T1 construct: interleukin-1 receptor antagonist; source: E. coli BL21 (DE3), pET-22b, soluble fraction purified (chelating SFF(Ni) column)

For a further assay, the target named is T2, PDGF-BB/PlGF123-141.
T2 construct: platelet-derived growth factor subunit B; also called engineered PDGF-BB
T2 sequence (P02671 36-866): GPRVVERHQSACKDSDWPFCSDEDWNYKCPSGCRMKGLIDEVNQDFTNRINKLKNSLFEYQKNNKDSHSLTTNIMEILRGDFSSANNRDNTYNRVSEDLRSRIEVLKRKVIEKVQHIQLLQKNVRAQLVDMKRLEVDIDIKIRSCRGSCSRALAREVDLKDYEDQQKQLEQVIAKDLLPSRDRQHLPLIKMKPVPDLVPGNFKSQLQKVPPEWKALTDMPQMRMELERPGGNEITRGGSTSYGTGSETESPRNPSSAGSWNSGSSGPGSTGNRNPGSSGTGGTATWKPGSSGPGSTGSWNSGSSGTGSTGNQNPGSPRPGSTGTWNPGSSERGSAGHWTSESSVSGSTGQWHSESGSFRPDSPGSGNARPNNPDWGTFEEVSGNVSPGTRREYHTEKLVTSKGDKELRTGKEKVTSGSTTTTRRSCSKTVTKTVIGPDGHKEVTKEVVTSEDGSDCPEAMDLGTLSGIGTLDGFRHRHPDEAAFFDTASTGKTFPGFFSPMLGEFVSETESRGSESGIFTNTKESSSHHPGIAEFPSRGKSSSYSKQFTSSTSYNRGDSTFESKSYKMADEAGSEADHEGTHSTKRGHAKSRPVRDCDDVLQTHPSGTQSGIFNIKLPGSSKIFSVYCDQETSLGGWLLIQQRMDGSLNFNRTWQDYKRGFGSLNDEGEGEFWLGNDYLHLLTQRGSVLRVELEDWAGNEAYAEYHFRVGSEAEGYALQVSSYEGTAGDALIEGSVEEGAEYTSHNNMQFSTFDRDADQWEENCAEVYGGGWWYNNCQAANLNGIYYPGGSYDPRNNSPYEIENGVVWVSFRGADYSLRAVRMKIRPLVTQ

The target in the assay “human fibrinogen” is B1.
A further assay has as its target T3, human vitronectin (human, UniProt P04004 20-478).
T3 construct: vitronectin, human; also called Vn; source: bought: Peprotech

The next assay has as its target T4, human tenascin C (human, UniProt P24821 23-2201).
T4 construct: tenascin C, human; also called TnC; source: bought: R&D Systems

The next assay deals with human plasma fibronectin (human).

T4 sequence (P24821 23-2201): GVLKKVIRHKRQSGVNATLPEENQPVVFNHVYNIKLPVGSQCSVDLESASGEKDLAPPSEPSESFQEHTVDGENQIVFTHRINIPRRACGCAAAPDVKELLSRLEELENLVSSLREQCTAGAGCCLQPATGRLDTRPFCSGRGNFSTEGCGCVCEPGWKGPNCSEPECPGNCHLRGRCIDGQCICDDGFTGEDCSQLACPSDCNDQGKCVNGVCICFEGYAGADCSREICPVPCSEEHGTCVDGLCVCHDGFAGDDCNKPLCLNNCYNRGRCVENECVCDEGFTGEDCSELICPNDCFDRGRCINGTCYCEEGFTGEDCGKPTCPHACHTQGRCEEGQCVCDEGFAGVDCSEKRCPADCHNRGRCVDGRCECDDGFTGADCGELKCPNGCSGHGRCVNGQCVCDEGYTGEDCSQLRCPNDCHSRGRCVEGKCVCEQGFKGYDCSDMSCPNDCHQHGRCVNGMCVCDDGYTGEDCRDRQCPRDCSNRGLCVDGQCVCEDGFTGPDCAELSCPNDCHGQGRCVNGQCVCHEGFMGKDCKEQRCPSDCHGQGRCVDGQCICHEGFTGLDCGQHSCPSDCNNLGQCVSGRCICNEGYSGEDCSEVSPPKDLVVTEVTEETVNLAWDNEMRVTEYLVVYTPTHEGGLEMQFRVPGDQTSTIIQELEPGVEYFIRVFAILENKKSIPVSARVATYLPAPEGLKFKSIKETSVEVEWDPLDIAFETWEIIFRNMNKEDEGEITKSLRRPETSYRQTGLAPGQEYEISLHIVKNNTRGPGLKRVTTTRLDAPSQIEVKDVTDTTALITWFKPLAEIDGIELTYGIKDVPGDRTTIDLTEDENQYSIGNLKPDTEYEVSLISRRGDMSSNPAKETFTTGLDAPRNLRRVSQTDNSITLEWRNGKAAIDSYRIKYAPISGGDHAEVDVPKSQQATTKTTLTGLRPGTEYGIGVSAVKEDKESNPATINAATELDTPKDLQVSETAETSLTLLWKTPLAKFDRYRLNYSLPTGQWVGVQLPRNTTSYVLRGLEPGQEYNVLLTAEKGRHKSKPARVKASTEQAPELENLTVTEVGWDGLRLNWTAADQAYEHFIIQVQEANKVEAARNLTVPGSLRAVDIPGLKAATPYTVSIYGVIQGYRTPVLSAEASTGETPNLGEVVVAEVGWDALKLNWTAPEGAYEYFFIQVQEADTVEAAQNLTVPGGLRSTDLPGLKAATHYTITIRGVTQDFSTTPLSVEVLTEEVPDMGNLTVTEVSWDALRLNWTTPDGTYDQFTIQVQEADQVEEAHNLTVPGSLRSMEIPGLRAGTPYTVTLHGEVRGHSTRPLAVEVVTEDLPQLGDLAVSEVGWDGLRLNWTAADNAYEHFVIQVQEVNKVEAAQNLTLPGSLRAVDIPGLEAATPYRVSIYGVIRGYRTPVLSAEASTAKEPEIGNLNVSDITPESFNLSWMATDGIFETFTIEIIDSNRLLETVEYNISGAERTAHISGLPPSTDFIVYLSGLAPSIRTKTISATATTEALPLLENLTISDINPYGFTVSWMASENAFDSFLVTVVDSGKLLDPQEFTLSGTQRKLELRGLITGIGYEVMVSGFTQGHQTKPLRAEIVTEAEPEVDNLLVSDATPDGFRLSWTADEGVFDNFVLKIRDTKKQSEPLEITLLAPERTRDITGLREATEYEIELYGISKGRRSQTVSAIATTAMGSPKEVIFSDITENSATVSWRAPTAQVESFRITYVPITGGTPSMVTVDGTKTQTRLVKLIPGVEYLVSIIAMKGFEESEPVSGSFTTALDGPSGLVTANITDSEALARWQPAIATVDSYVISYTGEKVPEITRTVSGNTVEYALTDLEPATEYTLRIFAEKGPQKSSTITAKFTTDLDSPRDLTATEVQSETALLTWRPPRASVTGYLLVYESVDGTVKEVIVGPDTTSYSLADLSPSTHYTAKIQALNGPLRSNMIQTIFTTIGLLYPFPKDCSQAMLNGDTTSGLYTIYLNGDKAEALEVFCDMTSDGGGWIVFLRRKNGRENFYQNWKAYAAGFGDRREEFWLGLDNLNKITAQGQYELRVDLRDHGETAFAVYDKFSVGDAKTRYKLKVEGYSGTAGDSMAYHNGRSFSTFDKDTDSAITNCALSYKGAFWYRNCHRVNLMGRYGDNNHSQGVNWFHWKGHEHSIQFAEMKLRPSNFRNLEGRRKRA
T3 sequence (P04004 20-478): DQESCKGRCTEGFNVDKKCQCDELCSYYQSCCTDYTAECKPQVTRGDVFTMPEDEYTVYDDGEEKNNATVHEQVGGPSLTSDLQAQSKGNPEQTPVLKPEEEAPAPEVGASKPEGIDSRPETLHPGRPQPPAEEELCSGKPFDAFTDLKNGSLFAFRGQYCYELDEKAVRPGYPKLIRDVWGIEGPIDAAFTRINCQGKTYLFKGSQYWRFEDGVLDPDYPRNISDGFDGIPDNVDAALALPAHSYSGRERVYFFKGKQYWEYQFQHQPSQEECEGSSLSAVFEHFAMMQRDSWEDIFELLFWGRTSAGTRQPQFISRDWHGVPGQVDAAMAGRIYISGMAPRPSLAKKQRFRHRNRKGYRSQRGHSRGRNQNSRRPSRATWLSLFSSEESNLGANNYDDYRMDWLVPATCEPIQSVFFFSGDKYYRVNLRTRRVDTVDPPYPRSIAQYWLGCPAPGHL
Sequence of human fibrinogen (P02671 36-866): as the sequence (P02671 36-866) above
T1 sequence (P18510 whole entry): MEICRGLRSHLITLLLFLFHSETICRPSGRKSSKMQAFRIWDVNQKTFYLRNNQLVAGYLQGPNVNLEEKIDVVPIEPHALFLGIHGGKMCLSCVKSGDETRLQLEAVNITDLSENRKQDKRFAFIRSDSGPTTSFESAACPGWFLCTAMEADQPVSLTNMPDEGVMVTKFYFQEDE

As for B1, the dissociation constant Kd (usually the concentration at which binding is half-saturated) in the assay with IL-1Ra/PlGF123-141 was determined as 43.5 nM; in the assay with PDGF-BB/PlGF123-141, 16.7 nM.
Consider B2, for which the equilibrium dissociation constant (Kd) with human fibrinogen came to 206 nM; with human vitronectin it was 32.1 nM; with human tenascin C it was 94.3 nM; with human plasma fibronectin it was 67.5 nM.
As to B3, the dissociation constant (Kd) amounted to 663 nM with human fibrinogen, 73.2 nM with human vitronectin, 113 nM with human tenascin C and 129 nM in the assay with human plasma fibronectin.

The record behind these values is paper PMC7998035, “Restoration of the healing microenvironment in diabetic wounds with matrix-binding IL-1 receptor antagonist” (Communications Biology, 2021).
